According to the supplement of paper PMC10567573:

B1: CCND1 (parent)
chain: IRRAYPDANLLNDRVLRAMLKAEE
B2: TSN (parent)
chain: FVELQGFLAAEQDIREEIRKVVQS

Variants of: B1
Assay: protein stability index of a GFP-peptide fusion (GPS, HEK-293T) (PSI 1-6); higher = more stable
Details: c terminus: a fixed tail appended
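Note: lentivirally expressed fusions sorted by FACS into six bins by GFP to DsRed ratio, PSI derived from sequencing read proportions per bin multiplied by bin number.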

Protein stability index, by site and new letter:
V15: G 3.37, D 3.5, E 3.12, T 3.33, A 3.31, L 1.9, I 1.99, N 3.25, H 4.36, R 3.57, C 2.61, Q 4.11, S 3.27, W 3.47, F 2.41, M 1.9, P 3.51
Y5: T 3.49, N 2.43, W 2.13, P 3.69, G 2.14, A 3.33, L 3.07, K 3.3, C 2.9, D 1.54, H 2.02, R 2.53, E 2.51
N12: P 1.84, A 3.21, E 3.41, Q 2.39, D 2.87, F 1.9, C 2.51, S 2.11, G 3.05, H 2.5, Y 2.52, R 2.73, K 2.15, W 2.19
L10: D 3.97, Y 3.34, H 2.94, K 3.23, V 2.49, S 2.14, W 2.02, F 2.52, R 3.08, N 3.58, T 3.13, Q 3.38, P 2.63, I 1.22, A 2.48
L20: E 4.09, T 3.12, S 3.69, M 2.87, Q 2.58, H 2.55, A 3.3, P 4.68, I 3.55, K 3.25, G 4.01, Y 2.9, F 2.63, W 2.32, D 4.05, R 3.03, N 3.45
R2: H 2.08, N 2.84, Q 3.03, A 3.82, C 2.25, M 3.37, F 1.94, Y 1.6, K 2.87, D 4.09, W 3.61, L 2.39, T 2.92, P 3.68, I 2.4, E 3.49
I1: W 2.32, R 2.21, N 3.69, S 3.94, Q 3.45, L 2.5, K 2.99, T 2.27, H 3.25, V 2.69, A 2.77, P 3.34, C 2.41
R14: H 1.74, F 2.56, Q 2.29, L 1.99, G 1.96, E 2.84, Y 1.84, C 2.41, D 1.56, T 3.07, M 2.81, K 1.83, I 1.03, A 2.3
A4: Q 2.37, P 3.12, H 2.4, E 2.04, R 2.37, Y 2.68, K 2.3, C 2.17, T 2.12, F 1.4, L 1.84, I 2.4, W 3.03, N 2.59, M 2.58, V 1.79
N9: A 2.34, D 2.3, R 2.06, I 2.36, Y 2.11, F 1.71, E 3.04, S 2.44, G 2.34, T 2.63, V 2.26
R3: W 1.99, E 3.72, N 2.66, K 2.84, Q 3.62, D 4.23, A 2.86, H 2.92, I 1.13, F 1.87, M 2.35, T 3.17, G 3.44, Y 2.05, V 1.54, P 2.71
R17: D 2.12, M 3.21, W 1.74, C 2.46, L 3.01, Q 2.68, H 2.31, I 1.82, P 3.46, E 2.22, Y 3.4, F 2.1, V 1.72, N 2.61, S 2.72, T 3.47
D13: H 2.2, W 2.35, T 2.52, A 2.28, C 2.72, V 1.54, N 2.02, S 2.37, Q 3.34, M 2.66, L 2.02, P 2.61, K 2.45, F 2.34, R 3.68, I 2.91
A22: E 3.08, D 2.73, F 1.92, I 2.1, K 3.27, H 2.8
M19: A 3, C 3.48, E 3, T 3.38, N 4.92, Q 3.52, V 3.61, W 3.96, K 3.92, D 4.26, R 3.15, F 3.26, P 3.79, H 3.54
L16: Q 3.53, P 4.08, V 2.94, Y 3.66, H 3.38, E 4.28, S 4.52, I 2.85, G 2.99, N 3.65, A 3.43, K 3.67
D7: Y 2.13, A 1.83, H 2.14, F 1.65, L 1.84, T 2.23, E 2.06, K 2.1, P 2.09, N 3.11, W 2.36, S 2.43
P6: S 3.19, D 1.43, G 2.13, A 1.75, E 2.14, L 2.42, T 1.88, V 3.38, F 2.4, M 2.99, Y 1.63, R 2.35, I 2.21
A18: M 1.8, W 2.3, L 1.31, G 3.77, R 3.23, K 3.02, T 3.58, H 3.17, I 2.36, P 2.29, N 3.06, C 2.33, Q 3.94, S 3.66
K21: S 2.72, L 3.01, A 2.35, I 2.38, N 3.04, V 2.93, H 2.56, T 3.33, Q 1.89, W 1.83, R 2.79, M 1.76, E 2.73, F 1.47, C 3.33, G 2.52, P 3.85
L11: M 1.92, D 4.19, S 3.01, E 3.58, T 3.04, C 2.69, Q 3.79, W 2.02, I 2.43, N 1.97, K 3.33, G 2.84, F 1.75, P 2.48, V 2.72
A8: H 2.28, S 2.81, N 3.46, T 2.61, I 2.02, F 2.54, R 3.16, V 3.02, Y 2.4, K 2.53, P 3.03, L 2.04, C 2.78, M 2.85

Variants of: B2
Assay: as above
Details: c terminus: a fixed tail appended

Protein stability index, by site and new letter:
V22: K 1.62, H 2.65, W 2.27, G 1.55, P 3.2, L 1.97, M 1.42, Q 4.66, R 1.7, I 3.83
Q23: L 1.92, W 1.65, I 1.25, D 3.47, M 1.98, T 2.38, F 2.61, C 3.33
S24: K 1.42, Q 1.97, L 3.92, G 2.37, E 1.72
